This is an account of results in patent US20190248902A1 (published 2019).

In test [1] the target is T1, Dog ASGR-1 (dog).
T1 construct: Expressed on HEK 293 cells or as membrane prep on beads; cDNA GenBank XM_546579
T1 chain: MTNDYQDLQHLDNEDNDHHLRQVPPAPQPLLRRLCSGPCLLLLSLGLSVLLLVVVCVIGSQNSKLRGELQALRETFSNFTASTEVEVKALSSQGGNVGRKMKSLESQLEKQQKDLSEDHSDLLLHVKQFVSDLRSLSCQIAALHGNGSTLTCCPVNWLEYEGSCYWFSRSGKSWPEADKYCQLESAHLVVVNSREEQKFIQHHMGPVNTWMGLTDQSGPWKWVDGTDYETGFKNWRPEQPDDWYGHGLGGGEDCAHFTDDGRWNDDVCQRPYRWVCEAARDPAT
Nature of the test: FACS on transfected HEK 293 cells or membrane preps on beads; binding = signal at least 2x irrelevant IgG. The essentials: (§1)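 Antibodies at normalized concentrations bound 1 h at 4° C to HEK 293 cells expressing each antigen, then Alexa Fluor 647 anti-Fc plus 7-AAD 15 min at 4° C, flow cytometry; empty-vector cells as negative. Alternatively, species ASGR-1 membrane preps on streptavidin beads, antibody 1 h RT, Alexa Fluor 488 anti-Fc; FACS buffer with 1 mM CaCl2 throughout.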

The target of test [2] is T2, Rat ASGR-1 (rat, UniProt P02706 1-284).
T2 construct: Expressed on HEK 293 cells or as membrane prep on beads; cDNA GenBank NM_012503
T2 sequence: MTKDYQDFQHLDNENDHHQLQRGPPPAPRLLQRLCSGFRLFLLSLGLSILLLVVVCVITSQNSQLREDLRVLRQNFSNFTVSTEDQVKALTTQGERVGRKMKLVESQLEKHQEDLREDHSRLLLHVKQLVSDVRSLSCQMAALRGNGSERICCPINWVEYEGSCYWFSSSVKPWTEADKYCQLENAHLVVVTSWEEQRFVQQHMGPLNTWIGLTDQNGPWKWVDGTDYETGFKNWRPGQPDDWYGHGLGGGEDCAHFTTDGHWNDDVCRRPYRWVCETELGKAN
Nature of the test: FACS on transfected HEK 293 cells or membrane preps on beads; Y = signal at least 2x irrelevant IgG. The essentials:
as §1

A further test concerns the target T3, Soluble ASGR-1 (human, UniProt P07306 62-291, biotinylated).
T3 construct: Soluble recombinant protein; also called recombinant, soluble ASGR-1 biotinylated protein
T3 sequence: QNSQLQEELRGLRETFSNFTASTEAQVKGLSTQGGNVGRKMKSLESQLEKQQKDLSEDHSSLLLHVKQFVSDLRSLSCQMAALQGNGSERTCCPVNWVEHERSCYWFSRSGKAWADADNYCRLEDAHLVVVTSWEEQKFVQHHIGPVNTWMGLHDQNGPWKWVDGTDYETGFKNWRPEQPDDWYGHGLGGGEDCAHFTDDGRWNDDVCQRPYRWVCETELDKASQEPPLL
As to the kind of experiment: limited antigen binding assay; biotinylated soluble ASGR-1 coated at 2.5 ng/mL on LumAvidin beads, FACS. As for the experimental part:
To assess antibody and antigen interaction strength (relative binding affinity), ASGR-1 specific, ligand competing antibody hybridoma supernatants were tested in a limiting antigen binding assay. Titrated amounts of recombinant, soluble ASGR-1 biotinylated protein was incubated with streptavidin-coated LumAvidin Beads® for 45 minutes in the dark at room temperature and washed twice. Beads were resuspeneded in FACS buffer containing Stabilguard® and 0.05% Sodium Azide. Antigen-bound beads were then incubated with normalized hybridoma supernatant sample or controls for 18 hours in the dark at room temperature, washed twice, incubated with Alexa Fluor® 488 IgG fragment-specific detection antibody for 15 minutes in the dark at room temperature, washed once and finally resuspended in FACS buffer. Samples were analyzed using an Intellicyt iQue™ Screener Platform. FACS buffer supplemented with 1 mM Calcium Chloride was used in all steps. […] In this assay method, the antibody binding signal correlates with antibody affinity. Antibody binding data for a representative antigen coating concentration that fell in the linear range of the instrument signal detection is shown in Table 7.2. The degree of antibody binding to the target (ASGR-1) correlates with the measured fluorescent intensity and thus allows a relative comparison of affinities across the panel.

Test [3] concerns the target T2, Rat ASGR-1. As to the kind of experiment: FACS on transfected HEK 293 cells or membrane preps on beads; binding = signal at least 2x irrelevant IgG. The essentials: as §1
For the next test, the target named is T4, Mouse ASGR-1 (mouse, UniProt P34927 1-284).
T4 construct: Expressed on HEK 293 cells or as membrane prep on beads; cDNA GenBank BC022106.1; also called muASGR-1; mASGR-1
T4 sequence: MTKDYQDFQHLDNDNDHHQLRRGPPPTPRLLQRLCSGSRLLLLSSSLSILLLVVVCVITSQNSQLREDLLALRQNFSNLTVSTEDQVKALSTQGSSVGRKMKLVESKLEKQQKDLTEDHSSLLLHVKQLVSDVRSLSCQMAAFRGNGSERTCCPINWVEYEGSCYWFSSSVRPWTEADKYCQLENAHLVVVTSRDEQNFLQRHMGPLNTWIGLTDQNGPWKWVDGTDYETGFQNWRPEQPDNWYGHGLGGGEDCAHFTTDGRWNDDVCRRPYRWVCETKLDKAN
Nature of the test: FACS on transfected HEK 293 cells or membrane preps on beads; Y = signal at least 2x irrelevant IgG. The essentials:
as §1

Test [4] deals with T1, Dog ASGR-1. Described as above. An outline of the steps: as §1

B1: 198D2 (antibody, V domains shown)
VH: QVQLVESGGGVVQPGRSLRLSCAASGFTFRSYGMHWVRQAPGKGLEWVAVIIYDGSYKYYADSVKGRFTISRDNSKNTLYLQMNSLRAEDTAVYYCARTYSGGMDVWGQGTTVTVSS
VL: QSVLTQPPSVSAAPGQKVTISCSGSSSNIGSNYVSWYQQLPGTAPKVLIYDNNKRPSGIPDRFSGSKSGTSATLGITGLQTGDEADYYCGTWDSRLNVGVFGGGTKLTVL
notes: Tested as hybridoma supernatant at normalized concentration
For the molecule B1, the results for the binding result with Dog ASGR-1 [1] and with Rat ASGR-1 [2] were “no binding” and “binds”, respectively. The “FACS Geomean” value in the test with Soluble ASGR-1 came to 1870 FACS Geomean.

B2: 56E5 (antibody, V domains shown)
VH: QVQLVQSGAEVKKPGASVKVSCQASGYTFTGYHMHWVRQAPGQGLEWMGWINPNNNATNYAQKFQGRVTMTRDTSISTAYMELRRLRSDDTAVYHCARDGTSSFDYWGQGTLVTVSS
VL: DIQMTQSPSSVSASVGDRVTITCRASQGIRKWLAWYQQKPGKAPKLLIYAASSLQSGVPSRFSGSGSGTDFTLTISSLQPEDFATYYCQQANSFPFTFGPGTKVDIK
notes: as for B1
Turning to B2, the binding result with Rat ASGR-1 [3] and in the test with Dog ASGR-1 [1] was “no binding” throughout. Moreover, in the test with Soluble ASGR-1, the “FACS Geomean” value stood at 22600 FACS Geomean.

B3: 48B12 (antibody, V domains shown)
VH: EVQLLESGGGLVQPGGSLRLSCAASGFTFSSYAMNWVRQAPGKGLEWVSAISGRGGNTFYADSVKGRFTISRDNSKNTLYLQMNSLRAEDTAVYYCAKRETYNWNYEGFDYWGQGTLVTVSS
VL: SYELTQPPSVSVSPGQTARITCSGDALPKKYAYWYQQKSGQAPVLVIYEDSKRPSGIPERFSGSSSGTMATLTISGAQVEDEADYYCNSTDSSGNHVVFGGGTKLTVL
notes: as for B1
Consider B3, for which the binding result with Rat ASGR-1 [3] and with Dog ASGR-1 [1] was “no binding” each time. The “FACS Geomean” value in the test with Soluble ASGR-1 was 27000 FACS Geomean.

B4: 22G5 (antibody, V domains shown)
VH: EVQLLESGGGLVQPGGSLRLSCAASGFTFSSYAMNWVRQAPGMGLEWVSVISRSGGYTYYADSVKGRFTISRDNSKNTLYLQMNSLRAEDTAVYYCASRLAVAGSEAFDIWGQGTLVTVSS
VL: DIQMTQSPSSLSASVGDRVTITCRASQNISSYLNWYQQKQGKAPKLLIYAASSLQNGVPSRFSGRGSGTDFTLTISSLQPEDFATYYCQQSYRTPLFTFGPGTKVDFK
notes: as for B1
For B4, the binding result with Rat ASGR-1 [3] and in the test with Dog ASGR-1 [1] was “no binding” in each case. The “FACS Geomean” value with Soluble ASGR-1 was 1080 FACS Geomean.

B5: 25A4 (antibody, V domains shown)
VH: QVLLVQSGAEVKRPGASVKVSCKASGYTFTNYDINWVRQATGQGLEWMGWMYPNSGNTGYAQKFQGRVTMTRNTSISTAYMELSSLRSEDTAVYYCASSSGWYYFDYWGQGTLVTVSS
VL: DIVMTQFPDSLAVSLGERATIKCKSSQSVLYSSHNNNYLAWYQQKPGQPPKLLLYWASTRESGVPDRFSGSGSGTEFTLTISSLEAEDVAVYYCQQYYSTPPTFGQGTKVEIK
notes: as for B1
For B5, the binding result was “no binding” with Dog ASGR-1 [1] and “binds” with Rat ASGR-1 [2]. In the test with Soluble ASGR-1, the “FACS Geomean” value turned out to be 18000 FACS Geomean.

B6: 26C4 (antibody, V domains shown)
VH: QVQLVQSGAEVKKPGASVKVSCKASGYTFTNYDINWVRQASGQGLEWMGWMNPNSGNTGYAQRFQGRVTMTRNTSINTAYMELSSLRSEDTAVYYCASSSGWYYFDYWGQGTLVTVSS
VL: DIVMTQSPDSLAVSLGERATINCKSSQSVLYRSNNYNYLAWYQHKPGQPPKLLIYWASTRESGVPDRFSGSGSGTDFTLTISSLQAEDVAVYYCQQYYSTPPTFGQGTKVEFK
notes: as for B1
With B6, the binding result was “no binding” in the test with Dog ASGR-1 [1] and “binds” with Rat ASGR-1 [2]. Moreover, in the test with Soluble ASGR-1, the “FACS Geomean” value turned out to be 12000 FACS Geomean.

B7: 4A2 (antibody, V domains shown)
VH: QVQLVQSGTEVKKPGASVKVSCKASGYTFTNYDINWVRQATGQGLEWMGWMHPNSGNTGYAQKFQGRVTLTRNTSISTAYMELSSLRSEDTAVYYCASSSGWYYFDYWGQGTLVTVSS
VL: DIVMTQSPDSLAVSLGERATINCKSSQSILHSSNNNNYLAWFQQKPGQPPKLLLYWASTRESGVPDRFSGSGSGTDFTLTISSLQPEDVAVYYCQQYYNTPVTFGPGTKVGIK
notes: as for B1
Turning to B7, the binding result was “no binding” with Dog ASGR-1 [1] and “binds” in the test with Rat ASGR-1 [2]. Besides, the “FACS Geomean” value with Soluble ASGR-1 was determined as 16600 FACS Geomean.

B8: 29H8 (antibody, V domains shown)
VH: QVQLVQSGAEVQKPGASVKVSCKASGYTFTNYDINWVRQATGQGLEWMGWMNPNSGNTGYAQRFQGRVTMTRNTSISAAYMELSSLRSEDTAVYYCASSSGWYYFDYWGQGTLVTVSS
VL: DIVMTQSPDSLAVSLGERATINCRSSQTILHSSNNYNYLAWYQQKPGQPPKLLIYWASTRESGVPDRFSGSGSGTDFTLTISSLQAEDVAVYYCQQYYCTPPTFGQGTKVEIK
notes: as for B1
Regarding B8, the binding result with Dog ASGR-1 [1] is reported as “no binding”; in the test with Rat ASGR-1 [2], “binds”. For the same molecule, in the test with Soluble ASGR-1, the “FACS Geomean” value turned out to be 12200 FACS Geomean.

B9: 6G7 (antibody, V domains shown)
VH: QVQLVESGGGVVQPGRSLRLSCAASGFTFSSYGMHWVRQTPGKGLEWVAIISYVGKNKYYADSVKGRFTISRDNSKNTLYLQMNSLRAEDTAVYYCARRGNSYGGYGMDVWGQGTTVTVSS
VL: DIQMTQSPSSRSASVGDRVTITCQASQDISNYLNWCQQKPGKALKLLIYDASTLETGVPSRFSGSGSGTDFTFTISSVQPEDIATYYCQQYDNVPITFGQGTRLEIK
notes: as for B1
B9: the values for the binding result with Dog ASGR-1 [1] and with Rat ASGR-1 [2] were “no binding” and “binds”, respectively. Further, in the test with Soluble ASGR-1, the “FACS Geomean” value came out at 2290 FACS Geomean.

B10: 7G4 (antibody, V domains shown)
VH: QVQLVESGGGVVQPGRSLRLSCAASGFTFNNYVMHWVRQAPGKGLEWVAVIWYDGSNKYYADSVKGRFTISRDNSKNTLYLQMTSLRAEDTAVYYCAREKYSSNWYDYGMDVWGQGTTVTVSS
VL: DIQMTQSPSSLSASVGDRVTITCRASQGIRNDLGWYQQRPGKAPKRLIYAASSLQSGVPSRFSGSGSGTEFTLTISSLQPEDSATYYCLHQYSYPRTFGQGTKVEIK
notes: as for B1
In the case of B10, the binding result in the test with Rat ASGR-1 [3] and with Dog ASGR-1 [1] was “no binding” throughout. Further, the “FACS Geomean” value in the test with Soluble ASGR-1 stood at 6800 FACS Geomean.

B11: 5E5 (antibody, V domains shown)
VH: QVQLVESGGGVVQPGRSLRLSCAASGFTFSNYVMHWVRQAPGKGLEWVAVIWYDGSNKYYADSVKGRFTISRDNSKNTLYLQMNSLRAEDTAVYYCTREVYSSGWYDYGMDVWGQGTTVTVSS
VL: DIQMTQSPSSLSASVGDRVTITCRASQGIRNDLGWYQQKPGKAPKRLIYAASSLQSGVPSRFSGSGSGTEFTLTISSLQPEDFATYYCLQHYSYPRTFGQGTKVEVK
notes: as for B1
For the molecule B11, the figures for the binding result with Dog ASGR-1 [1] and in the test with Rat ASGR-1 [2] were “no binding” and “binds”, respectively. Also, in the test with Soluble ASGR-1, the “FACS Geomean” value is 3280 FACS Geomean.

B12: 12D2 (antibody, V domains shown)
VH: EVQLVESGGGLVKPGGSLRLSCAASGFTFSSYSMNWVRQAPGKGLEWVSSISSSSSYIYYADSVKGRFTISRDNAKNSLYLQMNSLRAEDTAVYYCARLGDYWGQGTLVAVSS
VL: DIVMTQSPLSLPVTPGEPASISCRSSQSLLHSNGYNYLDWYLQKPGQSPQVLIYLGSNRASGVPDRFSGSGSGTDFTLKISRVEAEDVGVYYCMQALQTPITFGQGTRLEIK
notes: as for B1
Turning to B12, the binding result in the test with Rat ASGR-1 [2], with Mouse ASGR-1 and in the test with Dog ASGR-1 [4] was “binds” each time. Also, the “FACS Geomean” value with Soluble ASGR-1 was determined as 105 FACS Geomean.
